Reference: publication PMC2114792 (The Journal of Cell Biology, 1987)

Molecular target: the molecule itself
Assay: rotary shadowing electron microscopy

B1: chicken hexabrachion protein (myotendinous (M1) antigen) (natural protein, UniProt P10039 34-1808, looked up)
chain: ETGLNVTLPEDNQPVVFNHVYNIKLPVGSLCSVDLDTASGDADLKAEIEPVKNYEEHTVNEGNQIVFTHRINIPRRACGCAAAPDIKDLLSRLEELEGLVSSLREQCASGAGCCPNSQTAEGRLDTAPYCSGHGNYSTEICGCVCEPGWKGPNCSEPACPRNCLNRGLCVRGKCICEEGFTGEDCSQAACPSDCNDQGKCVDGVCVCFEGYTGPDCGEELCPHGCGIHGRCVGGRCVCHEGFTGEDCNEPLCPNNCHNRGRCVDNECVCDEGYTGEDCGELICPNDCFDRGRCINGTCFCEEGYTGEDCGELTCPNNCNGNGRCENGLCVCHEGFVGDDCSQKRCPKDCNNRGHCVDGRCVCHEGYLGEDCGELRCPNDCHNRGRCINGQCVCDEGFIGEDCGELRCPNDCHNRGRCVNGQCECHEGFIGEDCGELRCPNDCNSHGRCVNGQCVCDEGYTGEDCGELRCPNDCHNRGRCVEGRCVCDNGFMGEDCGELSCPNDCHQHGRCVDGRCVCHEGFTGEDCRERSCPNDCNNVGRCVEGRCVCEEGYMGIDCSDVSPPTELTVTNVTDKTVNLEWKHENLVNEYLVTYVPTSSGGLDLQFTVPGNQTSATIHELEPGVEYFIRVFAILKNKKSIPVSARVATYLPAPEGLKFKSVRETSVQVEWDPLSISFDGWELVFRNMQKKDDNGDITSSLKRPETSYMQPGLAPGQQYNVSLHIVKNNTRGPGLSRVITTKLDAPSQIEAKDVTDTTALITWSKPLAEIEGIELTYGPKDVPGDRTTIDLSEDENQYSIGNLRPHTEYEVTLISRRGDMESDPAKEVFVTDLDAPRNLKRVSQTDNSITLEWKNSHANIDNYRIKFAPISGGDHTELTVPKGNQATTRATLTGLRPGTEYGIGVTAVRQDRESAPATINAGTDLDNPKDLEVSDPTETTLSLRWRRPVAKFDRYRLTYVSPSGKKNEMEIPVDSTSFILRGLDAGTEYTISLVAEKGRHKSKPTTIKGSTEEEPELGNLSVSETGWDGFQLTWTAADGAYENFVIQVQQSDNPEETWNITVPGGQHSVNVTGLKANTPYNVTLYGVIRGYRTKPLYVETTTGAHPEVGELTVSDITPESFNLSWTTTNGDFDAFTIEIIDSNRLLEPMEFNISGNSRTAHISGLSPSTDFIVYLYGISHGFRTQAISAAATTEAEPEVDNLLVSDATPDGFRLSWTADDGVFDSFVLKIRDTKRKSDPLELIVPGHERTHDITGLKEGTEYEIELYGVSSGRRSQPINSVATTVVGSPKGISFSDITENSATVSWTPPRSRVDSYRVSYVPITGGTPNVVTVDGSKTRTKLVKLVPGVDYNVNIISVKGFEESEPISGILKTALDSPSGLVVMNITDSEALATWQPAIAAVDNYIVSYSSEDEPEVTQMVSGNTVEYDLNGLRPATEYTLRVHAVKDAQKSETLSTQFTTGLDAPKDLSATEVQSETAVITWRPPRAPVTDYLLTYESIDGRVKEVILDPETTSYTLTELSPSTQYTVKLQALSRSMRSKMIQTVFTTTGLLYPYPKDCSQALLNGEVTSGLYTIYLNGDRTQPLQVFCDMAEDGGGWIVFLRRQNGKEDFYRNWKNYVAGFGDPKDEFWIGLENLHKISSQGQYELRVDLRDRGETAYAVYDKFSVGDAKTRYRLRVDGYSGTAGDSMTYHNGRSFSTFDKDNDSAITNCALSYKGAFWYKNCHRVNLMGRYGDNNHSQGVNWFHWKGHEYSIQFAEMKLRPSSFRNLEGRRKRA
In the case of B1, the “stoichiometry N” value is reported as 6.
